These results are taken from article PMC8489356.

In general, EC50 refers to the concentration that produces a half-maximal response.

In test [1] the target is His-tagged recombinant human prosaposin (PSAP) (human) (UniProt P07602). As to the kind of experiment: ELISA. (In general: In an ELISA, binding on a coated surface is turned into a signal by an enzyme label.)
In test [2] the target is His-tagged recombinant human sortilin (human) (UniProt Q99523). As to the kind of experiment: ELISA.

Values joined by “and” are separate entries in the source; they are usually repeats but may differ in a detail not shown here. Identical values can stand only once.

UniProt Q99523, sequence (Q99523 78-755): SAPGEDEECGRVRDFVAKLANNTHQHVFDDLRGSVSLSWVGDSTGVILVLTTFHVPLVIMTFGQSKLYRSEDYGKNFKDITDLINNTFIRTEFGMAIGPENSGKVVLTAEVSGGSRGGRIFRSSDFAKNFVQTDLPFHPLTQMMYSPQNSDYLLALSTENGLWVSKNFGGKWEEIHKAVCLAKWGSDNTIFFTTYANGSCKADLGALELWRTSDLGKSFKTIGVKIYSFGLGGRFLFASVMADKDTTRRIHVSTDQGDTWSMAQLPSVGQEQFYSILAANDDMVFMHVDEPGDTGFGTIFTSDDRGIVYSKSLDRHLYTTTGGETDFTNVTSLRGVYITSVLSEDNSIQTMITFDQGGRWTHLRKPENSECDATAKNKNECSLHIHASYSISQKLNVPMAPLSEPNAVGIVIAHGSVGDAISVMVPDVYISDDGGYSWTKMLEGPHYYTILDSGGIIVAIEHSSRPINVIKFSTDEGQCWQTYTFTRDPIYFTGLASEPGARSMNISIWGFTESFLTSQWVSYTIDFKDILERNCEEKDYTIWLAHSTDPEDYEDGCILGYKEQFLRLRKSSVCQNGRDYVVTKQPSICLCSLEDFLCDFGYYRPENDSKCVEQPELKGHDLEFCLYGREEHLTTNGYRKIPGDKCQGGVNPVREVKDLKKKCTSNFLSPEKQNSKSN
UniProt P07602, sequence (P07602 17-524): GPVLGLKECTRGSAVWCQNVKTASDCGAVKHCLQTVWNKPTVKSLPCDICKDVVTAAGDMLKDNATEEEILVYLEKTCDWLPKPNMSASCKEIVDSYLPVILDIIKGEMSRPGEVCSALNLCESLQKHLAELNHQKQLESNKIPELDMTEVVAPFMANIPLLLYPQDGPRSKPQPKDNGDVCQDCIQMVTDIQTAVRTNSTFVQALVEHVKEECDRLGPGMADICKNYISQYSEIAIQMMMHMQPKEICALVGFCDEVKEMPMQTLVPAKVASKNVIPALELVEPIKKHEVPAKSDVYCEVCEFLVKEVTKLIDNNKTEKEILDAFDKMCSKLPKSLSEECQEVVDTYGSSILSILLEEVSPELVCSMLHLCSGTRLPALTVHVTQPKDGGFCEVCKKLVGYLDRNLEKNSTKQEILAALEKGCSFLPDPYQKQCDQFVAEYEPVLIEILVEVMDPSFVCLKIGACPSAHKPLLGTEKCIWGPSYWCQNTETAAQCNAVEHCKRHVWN

Turning to “Fc:PGRN (huPGRN fused to a normal Fc) (Fc fusion)”, the EC50 in test [1] is 1.14 nM and 3.9 nM; in test [2] it was 1.8 nM and 0.31 nM.
As for “protein transport vehicle:PGRN (PTV:PGRN), expressed in Expi293 cells (Fc fusion)”, the EC50 in test [1] was 1.74 nM and 5.1 nM; in test [2] it was 2.2 nM and 0.47 nM.
